Laboratory results from patent US7067109.

Target: anti-VCAM-1•tTF coaguligand (anti-VCAM-1 antibody covalently linked through SMPT to truncated tissue factor) (human) (UniProt P13726)
Experiment: 125I-labeled 10H10 on anti-VCAM-1•tTF-treated IL-1α-activated bEnd.3 cells

Sequence of UniProt P13726 (P13726 other isoform, or with tags, fused parts or gaps): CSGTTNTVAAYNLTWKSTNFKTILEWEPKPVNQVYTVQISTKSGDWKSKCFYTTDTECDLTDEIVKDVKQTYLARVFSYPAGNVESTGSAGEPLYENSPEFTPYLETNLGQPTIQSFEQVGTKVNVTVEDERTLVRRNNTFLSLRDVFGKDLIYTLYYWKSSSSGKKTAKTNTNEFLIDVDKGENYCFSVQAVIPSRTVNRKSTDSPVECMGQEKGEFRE

amount of antibody bound to the cells at saturation: 8.7 fmol
molecules of antibody bound per cell at saturation (molecules per cell): 540000
Substance: 10H10, mouse monoclonal antibody against human tissue factor
